Assay [1] concerns the target porcine cardiac ventricular myosin (βmys) (porcine) (UniProt P79293).
Assay [2] has the same target. This is another data set of the same source.

The source of these data is paper PMC6282072.

“bovine ventricular actin (cardiac actin) (from UniProt Q3ZC07 1-377) (natural protein)” yielded an actin-activated myosin ATPase, Km (0.6 µM myosin titrated with 1–50 µM F-actin, 25 mM KCl, 21°C) in assay [1] of 3.7 µM. The substance also came in with an actin-activated myosin ATPase, Km (value of the running text) in assay [2] of 3.6 µM.
